10 molecules from patent US20150239980A1 (NEOTOPE BOSCIENCES, published 2015) can be followed below.

Assay [1] has as its target T1, recombinant hMCAM-His (human, UniProt P43121 24-559).
T1 construct: not shown: His tag
T1 chain: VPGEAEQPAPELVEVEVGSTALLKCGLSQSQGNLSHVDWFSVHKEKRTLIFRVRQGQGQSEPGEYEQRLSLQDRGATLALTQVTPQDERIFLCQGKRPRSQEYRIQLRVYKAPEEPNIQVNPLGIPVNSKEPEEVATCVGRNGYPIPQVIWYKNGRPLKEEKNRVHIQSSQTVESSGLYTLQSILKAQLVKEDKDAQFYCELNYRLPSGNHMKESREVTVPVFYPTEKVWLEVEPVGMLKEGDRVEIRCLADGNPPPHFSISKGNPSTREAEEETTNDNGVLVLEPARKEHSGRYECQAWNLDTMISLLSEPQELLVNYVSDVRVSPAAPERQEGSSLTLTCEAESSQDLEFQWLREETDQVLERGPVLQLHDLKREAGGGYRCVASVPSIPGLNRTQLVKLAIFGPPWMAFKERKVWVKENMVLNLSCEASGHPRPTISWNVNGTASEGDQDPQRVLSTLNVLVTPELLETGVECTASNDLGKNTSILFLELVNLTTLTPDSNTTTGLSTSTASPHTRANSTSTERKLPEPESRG
Nature of the assay: ForteBio Octet Red, hMCAM-His analyte; Forte column 1; vs rodent 2107. How it is done:
(§1) The affinities were measured using the ForteBio Octet Red. Anti-human Fc sensors were used to capture the humanized antibodies, and several concentrations of hMCAMHis analyte were used to determine the affinity using a 1:1 fitting model.
(In general: In BLI a coated tip is dipped into the sample, and binding shifts an interference pattern.)

Assay [2] concerns the target T2, human MCAM (melanoma cell adhesion molecule) expressed on transfected CHO cells (human, UniProt P43121 24-646).
T2 construct: also called hMCAM; CD146
T2 chain: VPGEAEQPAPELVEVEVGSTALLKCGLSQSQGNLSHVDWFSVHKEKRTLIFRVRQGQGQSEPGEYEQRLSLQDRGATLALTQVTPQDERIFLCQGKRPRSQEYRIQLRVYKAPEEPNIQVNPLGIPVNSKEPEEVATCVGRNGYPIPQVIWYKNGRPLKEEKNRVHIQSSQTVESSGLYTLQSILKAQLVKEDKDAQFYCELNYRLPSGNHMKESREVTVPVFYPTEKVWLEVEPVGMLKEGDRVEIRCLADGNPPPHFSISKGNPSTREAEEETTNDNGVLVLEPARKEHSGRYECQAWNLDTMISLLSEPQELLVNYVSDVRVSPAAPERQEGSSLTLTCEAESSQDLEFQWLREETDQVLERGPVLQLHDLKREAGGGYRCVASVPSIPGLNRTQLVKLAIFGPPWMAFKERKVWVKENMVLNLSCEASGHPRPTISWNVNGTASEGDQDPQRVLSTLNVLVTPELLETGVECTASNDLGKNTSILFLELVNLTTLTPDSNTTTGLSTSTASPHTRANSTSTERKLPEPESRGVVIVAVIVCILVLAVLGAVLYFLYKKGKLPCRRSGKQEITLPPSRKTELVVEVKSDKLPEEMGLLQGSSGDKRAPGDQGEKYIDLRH
Nature of the assay: laminin/FACS on hMCAM CHO cells, competitor laminin 411; Expt#1; vs rodent 2107. The procedure:
(§2) Following incubation for 30-45 minutes, the cells were washed and anti-laminin conjugated to AF650 (NovusBio) was added to detect the bound laminin. The cells were run on a flow cytometer to measure the laminin binding signal.

The target in assay [3] is T1, recombinant hMCAM-His. Put plainly: competitive ELISA on hMCAM-His, competitor biotinylated rodent or chimeric 2107; vs rodent 2107. How it is done:
(§3) ELISA plates were coated with recombinant hMCAM-His, and blocked with casein buffer to prevent non-specific binding. Biotinylated rodent or chimeric antibody was added at a subsaturating concentration, in the presence or absence of 3× increasing concentrations of unlabeled competitor (humanized antibody, rodent, or chimeric). After washing to remove unbound antibody, streptavidin HRP was added to allow detection of the biotinylated antibody. The ELISA was developed with TMB substrate and the OD450 was measured. The IC50 of the unlabeled competitor was determined using the GraphPad Prism5 software.

Assay [4] deals with T2, human MCAM (melanoma cell adhesion …). Put plainly: laminin/FACS on hMCAM CHO cells, competitor laminin 411; Expt#2; reference row with 1.0 is chimeric 2107. How it is done:
as §2

Assay [5] deals with T1, recombinant hMCAM-His. Nature of the assay: ForteBio Octet Red, hMCAM-His analyte; Forte column 2; vs rodent 2107. The procedure:
as §1

The target of assay [6] is T1, recombinant hMCAM-His. Nature of the assay: summary of ForteBio, hMCAM-His; vs rodent 2120. The procedure:
as §1

The target of assay [7] is T1, recombinant hMCAM-His. Put plainly: ForteBio Octet Red, hMCAM-His analyte; Forte column 1; vs rodent 2120. How it is done:
as §1

The target in assay [8] is T2, human MCAM (melanoma cell adhesion …). Put plainly: laminin/FACS on hMCAM CHO cells, competitor laminin 411; Expt#1; vs rodent 2120. The procedure: as §2
Assay [9] shares this target. Nature of the assay: laminin/FACS on hMCAM CHO cells, competitor laminin 411; Expt#2; vs rodent 2120. How it is done: as §2
Assay [10] concerns the target T1, recombinant hMCAM-His. Put plainly: competitive ELISA on hMCAM-His, competitor biotinylated rodent or chimeric 2120; vs rodent 2120. How it is done:
as §3
In general terms: ELISA stands for enzyme-linked immunosorbent assay.

B1: h2107_VH1 + h2107_VL1 (antibody, human IgG1, V domains shown)
VH: QVTLKESGPVLVKPTETLTLTCTVSGFSLTSNGVSWVRQPPGKALEWIAAISSGGSTYYNSAFKSRLTISRDTSKSQVVLTMTNMDPVDTATYYCARHRPFYFDYWGQGTLVTVSS
VL: DIQMTQSPSSLSASVGDRVTITCKGSQNIYKSLAWFQQKPGKVPKLLIYDANSLQTGIPSRFSGSGSGTDFTLTISSLQPEDVATYYCQQYYSGYTFGGGTKVEIK
With B1, the “fold over rodent (Forte affinity)” value with recombinant hMCAM-His [1] is 12.9 fold. Also, the figures for the “fold over rodent (blocking, laminin/FACS)” value in assay [2] and in assay [4] were 2.3 fold and 2.1 fold, respectively. In addition, the “fold over rodent (competitive ELISA)” value with recombinant hMCAM-His [3] came to 2.1 fold.

B2: h2107_VH5 + h2107_VL2 (antibody, human IgG1, V domains shown)
VH: QVTLKESGPVLVKPTETLTLTCTVSGFSLTSQGVSWVRQPPGKALEWIAAISSGGSTYYNSAFKSRLTISPDTSKSQVVLTMTNMDPVDTATYYCARHRPFYFDYWGQGTLVTVSS
VL: DIQMTQSPSSLSASVGDRVTITCKGSQNIYKSLAWFQLKPGKVPKLLIYDANSLQTGIPSRFSGSGSGTDFTLTISSLQPEDVATYYCQQYYSGYTFGGGTKVEIK
For the molecule B2, the figures for the “fold over rodent (Forte affinity)” value in the assay with recombinant hMCAM-His [1] and with recombinant hMCAM-His [5] were 5.9 fold and 6 fold, respectively. Besides, the “fold over rodent (blocking, laminin/FACS)” value in assay [2] came to 1.6 fold; in [4], 1.5 fold. For the same molecule, the “fold over rodent (competitive ELISA)” value with recombinant hMCAM-His [3] came out at 1.3 fold.

B3: h2107_VH5 + h2107_VL1 (antibody, human IgG1, V domains shown)
VH: QVTLKESGPVLVKPTETLTLTCTVSGFSLTSQGVSWVRQPPGKALEWIAAISSGGSTYYNSAFKSRLTISPDTSKSQVVLTMTNMDPVDTATYYCARHRPFYFDYWGQGTLVTVSS
VL: DIQMTQSPSSLSASVGDRVTITCKGSQNIYKSLAWFQQKPGKVPKLLIYDANSLQTGIPSRFSGSGSGTDFTLTISSLQPEDVATYYCQQYYSGYTFGGGTKVEIK
In the case of B3, in the assay with recombinant hMCAM-His [1], the “fold over rodent (Forte affinity)” value was determined as 28.2 fold. In addition, the “fold over rodent (competitive ELISA)” value with recombinant hMCAM-His [3] was found to be 3.7 fold.

B4: h2107_VH1 + h2107_VL3 (antibody, human IgG1, V domains shown)
VH: QVTLKESGPVLVKPTETLTLTCTVSGFSLTSNGVSWVRQPPGKALEWIAAISSGGSTYYNSAFKSRLTISRDTSKSQVVLTMTNMDPVDTATYYCARHRPFYFDYWGQGTLVTVSS
VL: DIQMTQSPSSLSASVGDRVTINCKGSQNIYKSLAWFQQKPGKVPKLLIYDANSLQTGIPSRFSGSGSGTDFTLTISSLQPEDVATYYCQQYYSGYTFGGGTKVEIK
For the molecule B4, in the assay with recombinant hMCAM-His [1], the “fold over rodent (Forte affinity)” value stood at 16.3 fold. Besides, the “fold over rodent (blocking, laminin/FACS)” value in assay [2] is 2.6 fold; in assay [4] it was 2 fold. The “fold over rodent (competitive ELISA)” value in the assay with recombinant hMCAM-His [3] was determined as 2.3 fold.

B5: h2107_VH5 + h2107_VL3 (antibody, human IgG1, V domains shown)
VH: QVTLKESGPVLVKPTETLTLTCTVSGFSLTSQGVSWVRQPPGKALEWIAAISSGGSTYYNSAFKSRLTISPDTSKSQVVLTMTNMDPVDTATYYCARHRPFYFDYWGQGTLVTVSS
VL: DIQMTQSPSSLSASVGDRVTINCKGSQNIYKSLAWFQQKPGKVPKLLIYDANSLQTGIPSRFSGSGSGTDFTLTISSLQPEDVATYYCQQYYSGYTFGGGTKVEIK
As for B5, the “fold over rodent (Forte affinity)” value with recombinant hMCAM-His [1] was found to be 33.2 fold. The “fold over rodent (competitive ELISA)” value in the assay with recombinant hMCAM-His [3] worked out at 3.4 fold.

B6: h2107_VH6 + h2107_VL1 (antibody, human IgG1, V domains shown)
VH: QVTLKESGPVLVKPTETLTLTCTVSGFSLTSNAVSWVRQPPGKALEWIAAISSGGSTYYNSAFKSRLTISRDTSKSQVVLTMTNMDPVDTATYYCARHRPFYFDYWGQGTLVTVSS
VL: DIQMTQSPSSLSASVGDRVTITCKGSQNIYKSLAWFQQKPGKVPKLLIYDANSLQTGIPSRFSGSGSGTDFTLTISSLQPEDVATYYCQQYYSGYTFGGGTKVEIK
As for B6, in the assay with recombinant hMCAM-His [1], the “fold over rodent (Forte affinity)” value amounted to 36.8 fold. The “fold over rodent (competitive ELISA)” value in the assay with recombinant hMCAM-His [3] was 15.3 fold.

B7: h2107_VH6 + h2107_VL3 (antibody, human IgG1, V domains shown)
VH: QVTLKESGPVLVKPTETLTLTCTVSGFSLTSNAVSWVRQPPGKALEWIAAISSGGSTYYNSAFKSRLTISRDTSKSQVVLTMTNMDPVDTATYYCARHRPFYFDYWGQGTLVTVSS
VL: DIQMTQSPSSLSASVGDRVTINCKGSQNIYKSLAWFQQKPGKVPKLLIYDANSLQTGIPSRFSGSGSGTDFTLTISSLQPEDVATYYCQQYYSGYTFGGGTKVEIK
B7: the “fold over rodent (Forte affinity)” value with recombinant hMCAM-His [1] turned out to be 22.1 fold. Also, in the assay with recombinant hMCAM-His [3], the “fold over rodent (competitive ELISA)” value was determined as 9.9 fold.

B8: h2120_VH1 + h2120_VL1 (antibody, human IgG1, V domains shown)
VH: QVTLKESGPVLVKPTETLTLTCTVSGFSLTSNGVSWVRQPPGKALEWIAAISSGGTTYYNSAFKSRLTISRDTSKSQVVLTMTNMDPVDTATYYCARRYGYGWYFDFWGQGTLVTVSS
VL: DIQMTQSPSSLSASVGDRVTITCKASQNIYNSLAWYQQKPGKAPKVLIFNANSLQTGIPSRFSGSGSGTDFTLTISSLQPEDFATYYCQQFYSGYTFGQGTKLEIK
As for B8, the “fold reduction in affinity as measured by ForteBio” value (shortened to “fold reduction in affinity”) in the assay with recombinant hMCAM-His [6] is greater than 5 fold. The “fold over rodent (Forte affinity)” value with recombinant hMCAM-His [7] is 8.8 fold. The results for the “fold over rodent (blocking, laminin/FACS)” value in assay [8] and in assay [9] were 2 fold and 3.5 fold, respectively. For the same molecule, the “fold over rodent (competitive ELISA)” value in the assay with recombinant hMCAM-His [10] was 3.1 fold.

B9: h2120_VH4 + h2120_VL3 (antibody, human IgG1, V domains shown)
VH: QVTLKESGPVLVKPTETLTLTCTVSGFSLTSQGVSWVRQPPGKALEWIAAISSGGTTYYNSAFKSRLTISRDTSKSQVVLTMTNMDPVDTATYYCARRYGYGWYFDFWGQGTLVTVSS
VL: DIQMTQSPSSLSASVGDRVTINCKASQNIYNSLAWYQQKPGKAPKVLIFNANSLQTGIPSRFSGSGSGTDFTLTISSLQPEDFATYYCQQFYSGYTFGQGTKLEIK
For the molecule B9, the “fold reduction in affinity” value in the assay with recombinant hMCAM-His [6] is greater than 5 fold. Besides, the “fold over rodent (Forte affinity)” value with recombinant hMCAM-His [7] amounted to 17.4 fold. The results for the “fold over rodent (blocking, laminin/FACS)” value in [8] and in assay [9] were 3.8 fold and 5.6 fold, respectively. Further, in the assay with recombinant hMCAM-His [10], the “fold over rodent (competitive ELISA)” value was 5 fold.

B10: h2120_VH1 + h2120_VL2 (antibody, human IgG1, V domains shown)
VH: QVTLKESGPVLVKPTETLTLTCTVSGFSLTSNGVSWVRQPPGKALEWIAAISSGGTTYYNSAFKSRLTISRDTSKSQVVLTMTNMDPVDTATYYCARRYGYGWYFDFWGQGTLVTVSS
VL: DIQMTQSPSSLSASVGDRVTITCKASQNIYNSLAWYQQKPGKAPKVLIFNANSLQTGVPSRFSGSGSGTDFTLTISSLQPEDFATYYCQQFYSGYTFGQGTKLEIK
As to B10, the “fold reduction in affinity” value in the assay with recombinant hMCAM-His [6] is greater than 5 fold. The “fold over rodent (Forte affinity)” value in the assay with recombinant hMCAM-His [7] came out at 10.8 fold. Moreover, the “fold over rodent (blocking, laminin/FACS)” value in [8] was 4.6 fold; in assay [9], 12.6 fold. In addition, the “fold over rodent (competitive ELISA)” value in the assay with recombinant hMCAM-His [10] worked out at 3.1 fold.
